The target of one data set is NS3 (Hepatitis C virus genotype 1b, UniProt P26663). Conditions: read-out: affinity for NS3 in solution; cited from earlier work.
Data set [1] concerns the target Biotin-DTEDVVAC …-pY (streptavidin-tagged peptide) (Hepatitis C virus). The data set is described as follows: SPR (BIAcore); 4G10 amine-coupled to the chip, streptavidin-tagged phosphotyrosine peptide injected, regeneration with 2 M MgCl2. For orientation: SPR reads the build-up and loss of mass on a sensor chip optically.
In data set [2] the target is T1, His-NS31-181 (NS3 catalytic domain) (Hepatitis C virus (1b/BK strain), UniProt Q9WMX2 1027-1206).
T1 chain: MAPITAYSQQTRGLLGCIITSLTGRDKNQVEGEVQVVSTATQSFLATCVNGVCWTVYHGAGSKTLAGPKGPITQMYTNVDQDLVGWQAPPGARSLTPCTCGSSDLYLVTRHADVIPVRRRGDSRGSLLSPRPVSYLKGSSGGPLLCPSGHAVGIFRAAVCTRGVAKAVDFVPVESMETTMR
The data set is described as follows: cell-based or functional assay.

Data set [3] deals with T2, 5A/5B (P8P8') substrate DTEDVVCC*SMSYTWTG-K.
T2 chain: DTEDVVCCSMYTWTGK

Data set [4] can be described thus: Size exclusion chromatography (aggregated vs monodispersed form). In kind it is physicochemical. Conditions: for period for which the complex remains monodispersed: 4° C. How it is done: Two hundred μl of various purified proteins were applied to a calibrated Superdex-75 HR (1 cm×30 cm) FPLC column equilibrated with 25 mM HEPES, pH 7.4, 1M NaCl and 10% glycerol and 10 mM βME at 0.5 ml/min. The column was precalibrated using Pharmacia standard calibration proteins (BSA: 67 KDa; Ovalbumin: 43 KDa; Chymotrypsinogen A: 31 KDa; Ribonuclease A: 13.7 KDa). Protein elution was monitored at 280 nm.
(In general: Size exclusion chromatography separates by hydrodynamic size, large species first.)

Data set [5] relates to 5A/5B (P8P8′) substrate DTEDVVCC*SMSYTWTG-K. The data set is described as follows: Proteolytic activity by 1D-HPLC (reverse-phase) with 5A/5B substrate. In kind it is biochemical, HCV Japanese (1b/BK) strain. Conditions: for Km / kcat: 5A/5B substrate, room temperature, 60 min, footnote a for His-NS31-181 + NS4A Peptide: [E] = 0.25 μM, [NS4A Peptide] = 10 μM. How it is done:
Following expression and purification, newly engineered recombinant species were assayed for proteolytic activity utilizing a 1D-HPLC (reverse-phase chromatography) technique. Assays were conducted using the 5A/5B (P8P8′) substrate DTEDVVCC*SMSYTWTG-K (SEQ ID NO: 25) in 25 mM Tris-HCl pH 7.5, 150 mM NaCl, 0.5 mM EDTA, 10 mM DTT, 10% glycerol, and 0.05% lauryl maltoside. Concentration of all proteins were determined by BIORAD dye method). […] Reactions were incubated at room temperature for 60 minutes and were quenched with an equal volume of 10% phosphoric acid. Following injection, cleavage products were monitored under a linear 0-80% acetonitrile gradient in 0.1% TFA. The product P1′P8′K peak areas were automatically converted to product quantity in nanomoles by a standard curve.
The various covalent NS4A-NS3 complexes whose proteolytic efficiency has been determined according to the above method, and the results of each determination, are shown in Table 1.

The nature of data set [6]: Solubility judged by achievable concentration of the complex. The format is physicochemical. From the text: Thirteen representative embodiments of such mutant NS4A-NS3 complexes are disclosed in the Examples below. In some embodiments, the isoleucine at position 17 is mutated to lysine. One such mutant form is referred to as His-NS4A21-32-GSGS-NS33-181/I17K (SEQ ID NO: 2). In other embodiments, the same mutation is made at position 18. One such mutant form is referred to as His-NS4A21-32-GSGS-NS33-181/I18K (SEQ ID NO: 3). In yet other embodiments, the mutations are introduced at both positions. One such mutant is referred to as His-NS4A21-32-GSGS-NS33-181/I17K,I18K (SEQ ID NO: 4).
A “soluble” covalent complex as referred to herein is defined as a protein which will remain in solution after a high spin centrifugation step at 300,000×g in a standard ultracentrifuge in a buffer containing 25 mM HEPES, pH 7.6, 10% glycerol, 0.3 M NaCl, 10 mM βME.

Broadly, the Km is the substrate concentration at which the rate is half of its maximum. As a reminder, the kcat is the number of substrate molecules converted per active site and unit of time at saturation. A word on the kcat/Km: it is the turnover number divided by the Michaelis constant.

Regarding “NS4A peptide: 13-19 residue NS4A peptide spanning the central hydrophobic domain of the full-length NS4A protein (KKGSVVIVGRIVLSGKPAIIPKK)”, the Kd with NS3 was 10 µM.

“Anti-phosphotyrosine monoclonal antibody 4G10 (Upstate Biotechnology Inc.)”: the % binding of tagged peptide after regeneration in data set [1] was 100%.

For the molecule KKGSVVIVGRIVLSGKPAIIPKK [4A peptide KKGSVVIVGRIVLSGKPAIIPKK], the “catalytic activity relative to full-length NS31-631-NS4A1-54” value in data set [2] stood at 8 fold lower.

B1: His-NS31-181 + NS4A Peptide (non-covalent complex) (protein)
chain 1: MAPITAYSQQTRGLLGCIITSLTGRDKNQVEGEVQVVSTATQSFLATCVNGVCWTVYHGAGSKTLAGPKGPITQMYTNVDQDLVGWQAPPGARSLTPCTCGSSDLYLVTRHADVIPVRRRGDSRGSLLSPRPVSYLKGSSGGPLLCPSGHAVGIFRAAVCTRGVAKAVDFVPVESMETTMR
chain 2: KKGSVVIVGRIVLSGKPAIIPKK
With B1, in data set [3], the Km was 80 µM, the kcat came to 0.05 s⁻¹ and the kcat/Km came to 500 M⁻¹ s⁻¹.

B2: His-NS4A21-32-GSGS-NS33-181/I17K (protein)
chain: MGSSHHHHHHSSGLVPRGSHMGSVVIVGRIILSGSGSITAYSQQTRGLLGCKITSLTGRDKNQVEGEVQVVSTATQSFLATCVNGVCWTVYHGAGSKTLAGPKGPITQMYTNVDQDLVGWQAPPGARSLTPCTCGSSDLYLVTRHADVIPVRRRGDSRGSLLSPRPVSYLKGSSGGPLLCPSGHAVGIFRAAVCTRGVAKAVDFVPVESMETTMRS
In the case of B2, in data set [4], the “dispersion state as judged by size exclusion chromatography” value (“dispersion state as judged” for short) was “monodispersed” and the “period for which the complex remains monodispersed” value is recorded as “about one week”. Further, in data set [3], the Km was 20 µM, the kcat was determined as 0.267 s⁻¹ and the specificity constant (kcat/Km) is 14000 M⁻¹ s⁻¹. Moreover, in data set [5], the “kinetic properties compared with wild type” value is “identical to those of the wild type”, the Km stood at 20 ± 2 µM and the kcat was determined as 0.267 ± 0.05 s⁻¹. Also, the “achievable concentration of the complex (solubility)” value (“achievable concentration” for short) in data set [6] was in the range of 17 to 20 mg/mL.

B3: His-NS4A21-32-GSGS-NS33-181 (protein)
chain: MGSSHHHHHHSSGLVPRGSHMGSVVIVGRIILSGSGSITAYSQQTRGLLGCIITSLTGRDKNQVEGEVQVVSTATQSFLATCVNGVCWTVYHGAGSKTLAGPKGPITQMYTNVDQDLVGWQAPPGARSLTPCTCGSSDLYLVTRHADVIPVRRRGDSRGSLLSPRPVSYLKGSSGGPLLCPSGHAVGIFRAAVCTRGVAKAVDFVPVESMETTMRS
As for B3, in data set [3], the Km turned out to be 19 µM, the kcat is 0.15 s⁻¹ and the kcat/Km was determined as 8000 M⁻¹ s⁻¹.

B4: His-NS4A21-32-GSGS-NS33-181/I18K (protein)
chain: MGSSHHHHHHSSGLVPRGSHMGSVVIVGRIILSGSGSITAYSQQTRGLLGCIKTSLTGRDKNQVEGEVQVVSTATQSFLATCVNGVCWTVYHGAGSKTLAGPKGPITQMYTNVDQDLVGWQAPPGARSLTPCTCGSSDLYLVTRHADVIPVRRRGDSRGSLLSPRPVSYLKGSSGGPLLCPSGHAVGIFRAAVCTRGVAKAVDFVPVESMETTMRS
Consider B4, for which, in data set [4], the “dispersion state as judged” value is reported as “monodispersed” and the “period for which the complex remains monodispersed” value is “about one week”. Moreover, in data set [3], the Km amounted to 22 µM, the kcat came to 0.167 s⁻¹ and the kcat/Km turned out to be 8000 M⁻¹ s⁻¹. In data set [5], the “kinetic properties compared with wild type” value is on record as “identical to those of the wild type”, the Km was found to be 22 ± 2 µM and the turnover number (kcat) was 0.167 ± 0.033 s⁻¹. In addition, the “achievable concentration” value in data set [6] was 17 to 20 mg/mL.

B5: His-NS4A21-32-GSGS-NS33-181/I17K,I18K (protein)
chain: MGSSHHHHHHSSGLVPRGSHMGSVVIVGRIILSGSGSITAYSQQTRGLLGCKKTSLTGRDKNQVEGEVQVVSTATQSFLATCVNGVCWTVYHGAGSKTLAGPKGPITQMYTNVDQDLVGWQAPPGARSLTPCTCGSSDLYLVTRHADVIPVRRRGDSRGSLLSPRPVSYLKGSSGGPLLCPSGHAVGIFRAAVCTRGVAKAVDFVPVESMETTMRS
With B5, in data set [4], the “dispersion state as judged” value is “monodispersed” and the “period for which the complex remains monodispersed” value is reported as “about one week”. In data set [5], the “kinetic properties compared with wild type” value is “identical to those of the wild type”. Moreover, in data set [6], the “achievable concentration” value fell in the range of 17 to 20 mg/mL.

B6: NS31-631-NS4A1-54 (non-covalent full-length NS3 protease / NS4A complex) (protein)
chain 1: MAPITAYSQQTRGLLGCIITSLTGRDKNQVEGEVQVVSTATQSFLATCVNGVCWTVYHGAGSKTLAGPKGPITQMYTNVDQDLVGWQAPPGARSLTPCTCGSSDLYLVTRHADVIPVRRRGDSRGSLLSPRPVSYLKGSSGGPLLCPSGHAVGIFRAAVCTRGVAKAVDFVPVESMETTMRSPVFTDNSSPPAVPQSFQVAHLHAPTGSGKSTKVPAAYAAQGYKVLVLNPSVAATLGFGAYMSKAHGIDPNIRTGVRTITTGAPVTYSTYGKFLADGGCSGGAYDIIICDECHSTDSTTILGIGTVLDQAETAGARLVVLATATPPGSVTVPHPNIEEVALSNTGEIPFYGKAIPIEAIRGGRHLIFCHSKKKCDELAAKLSGLGINAVAYYRGLDVSVIPTIGDVVVVATDALMTGYTGDFDSVIDCNTCVTQTVDFSLDPTFTIETTTVPQDAVSRSQRRGRTGRGRRGIYRFVTPGERPSGMFDSSVLCECYDAGCAWYELTPAETSVRLRAYLNTPGLPVCQDHLEFWESVFTGLTHIDAHFLSQTKQAGDNFPYLVAYQATVCARAQAPPPSWDQMWKCLIRLKPTLHGPTPLLYRLGAVQNEVTLTHPITKYIMACMSADLEVVT
chain 2: STWVLVGGVLAALAAYCLTTGSVVIVGRIILSGRPAIVPDRELLYQEFDEMEEC
For B6, in data set [3], the Km is 20 µM, the kcat was found to be 0.167 s⁻¹ and the kcat/Km was 8000 M⁻¹ s⁻¹.
